Consider 18 sequences from the DeepSol protein solubility set.

A short description of the data set: soluble on expression in E. coli; label from the status in PepcDB or PDB records.
In the case of “MVPNDVFQKLLYDLFCMWHGVQRHYDPPIPDSEEQRMQKVKNLICKLLTEIDGRVNRIKQNNNHQRGQDFYEEWTMLTWNVLCITNRLQNSLSQVVVSNEDKMIYSRLNQALVELVNYSRDFLPFPSTNEMDPEYVMLRDKMNQTMMSLHGLYRQMNSAMYQTPDDVENFRIHLQTFGDDILVPCLEQYKTFCNKNCMALWQQVRLVQVERMRDQVKDQGCSIENLVSFYSNMTYVLAVLGARLQGFRYDLTVNKKFFNFDPVVHMSEAVFAALELLMSNCVLATEPSTSAILVTNNLFAMNCGALARGVVFKDFEIQVVSEETAEHIQSEMSRQRLLQHPAPIGNVPSAALLAMKPTTGTKRSNAASNSDSANNTAHKKSDVNSKESVIIYPVYNSKNRYWAATYPHLLCTTRQKGRQSIHSSYQDLSPSGTNSSASNDKNGSGKRPIFYFHIKATMFSPSGRFATAHTLSLPFTIATRRNQDCQVQRMMSSYTATIFWLYGCNTQDGLLLQWIDGGMHWDHFKHLFKQHFKLLKYKLQCPDCCSGQDGARVNGVQQIVTFKNVLCPHLRYECNSTNVRFSVWRGMLELLQIFHDTRNNVRKLWEMGFLMGFMEFEEVDNMLEKHKSALIMRLSFVTGGTICFTVKSLAHTLDPRSSRPIHLEPLDLKRLQQKCLKDYLRDIADAEKVKYILTANEEVINIESLLESLKELGVKPENPSESREISSNITHMGDIDTMQHIKFTAMRIAVVTCKVKPPSADQEENDANGLNRLQATLGTRDDDFLRDFVQLANAYGKSKQDLYEALDFINDQYQPGPIRKTSSIYDSSHHIPLAPAPIARNMGPTMISPPPAKVRPPAVDTYPRSSQFELVRSDSDHLPPSNTMMRVSCSPPKPPSQLPSPNQTTIPHMYNNGIPMIYEHHQQQRFDY”, the “soluble on expression in E. coli” value was “not soluble”.
Under “MSLENISQKYSCSIVPLAEKKIFSVNDGLNVILKSLEDTKAEDIVSIDIQGKSSLADYMVIASAHSQRHVSSVADHLLRTWKDSGYGRASVEGLTEGNWVLIDTGDIIIHLFRPEIRLFYNLEKMWLTPDLNNTKLALFGDH” stands “not soluble”; under “IAAGGSHVEAAPQEEWKKHFIHTGELGSAEFASVMSHTTSAMKSVFEQVNAPYSGMDPKALEDAINAVDLDNKNAPLKSVIDDVAELVAKNAIFTQHPDCIAHLHTPPLMPAVAAEAMIAALNQSMDSWDQASSATYVEQKVVNWLCDKYDLSEKADGIFTSGGTQSNQMGLMLARDWIADKLSGHSIQKLGLPDYADKLRIVCSKKSHFTVQKSASWMGLGEKAVMTVDANADGTMDITKLDEVIAQAKAEGLIPFAIVGTAGTTDHGAIDDLDFIADMAVKHDMWMHVDGAYGGALILSSHKSRLKGVERAHSISVDFHKLFYQTISCGALLVNDKSNFKFLLHHADYLNREHDELPNLVDKSIATTKRFDALKVFMTMQNVGPKALGDMYDHLLAQTLEVADMIRTNDQFELLAEPSLSTVLFRATHETADLDELNKALRLEALTRGIAVLGETIVDGKTALKFTILNPCLTTSDFESLLSKINMLAVELV”, “soluble”; under “MGSDKIHHHHHHMMAKLVVCIIDGMADPPPPAGGVTPLAAAHTPHCDTLARHSVAGLCHVIQPEAVPGSEAGLSALLCCEAAASIARGPVEALAQGDPVAPHETVWRLNLVSLGPRGNYYNPAPLLDAATETAARKMLDRALGTQGYSLLGGKGFRHLCAGTEPPVLRDGPQDVCGMTPDTGQADLNSYCPRLARAMTEANVLFRRSRMDLAVWPWGAGTMPDLPGFAETTGQTGALAGGVPLARGLALALGMTAPSIAGATGGIDTDLGAKTRAAIALAAGHDVVYLHVEAPDLHAHALDRVAKRRAIERIDAEVVGPLHMALPDATLLITCDHATDCATGRHMAIPVPFILHKPDGPQDGIATFSEAASARTGIRIDSAATLVRLALAD”, “not soluble”.
In the case of “MILVIDVGNTNTVFGVYDGKKLLNHWRMETSKGKTSDEYGMFIVSLLSYEKIDVGKIEAVVIASVVPPIMYSLEHAIRKYFKLEPMVVGPGIKTGINIKYENPREVGADRIINAVAALELYGGPLIIVDFGTATTFCAVSSKGEYLGGVICPGIKISAEALFQKTAKLPKIDLVKPETVIGRNTVSSMQSGIIYGYVGEVDYIVRRMKKEMKEDNIKVIATGGLARLIASESETIDEINGLLTLEGLRIIYERNK”, the “soluble on expression in E. coli” value was “soluble”.
As for “MREAMYWKPLGDGRVRCELCPLRCIIDEGKRGSCKIRINKGGKLYTLNYGKVSSIALDPIEKKPLFHFWPGSCALSIGTVGCNMHCKHCQNWEISQADESFPYLQDATPEAIVSLAKHYECESIAYTYNEPTIWYEFVLDTAKLARKEGLNNILVTNGYINEEPFRELAPYIDAMNIDIKAFDDKFYMKIASVPSGEPSRRIAEIAKKEFKIHVELTYLIIPTLNDKEEEIREFARWVVENLGDDTPVHFSRFFPHYKLLNLPPTPIETLEKAYKIAKEEGLKFVYLGNVPGHPGENTYCPSCGKLLIERWGFDIIRYDIVDGKCKYCGEKIPIVGKYQKKKYRGMWW”, the “soluble on expression in E. coli” value is “soluble”.
“MGSDKIHHHHHHAAPGDLQEKLAALKGISGIEKLQSDYYPEKYVVRITQQVDPKDPAAGTFTQRVIVGHVGYDRPTIIVTEGYGAAYALNPKYQEELSKLLNANLVFVEYRYFLESTPEPKNWDYLTAENSAYDLHNVRNTFKQIYPGKWISTGISKGGQTTMLYRAFFPDDVDFSVPYVGPLCKGVEDGRHEPFLRKVGTKAEREKIQDFQLEVLKRKSDMLPLLESYCKNKNLTFRIPMPEVLDYCVLEYSFALWQWGTSVSTIPSKSADDQALFDHLMEISGPDYFAENQPNISFFVQAARELGYYGYDVKPFKKYLTIDSAHGYLNRIMLPEELVGKVDFRPALYHKIYNFLKDNDPKMIFIYGEIDPWSAAMVPAFKGKKNEQIYIQPRGSHRARIGNMPEDMKERILTQMNKWLAE”: the “soluble on expression in E. coli” value is recorded as “not soluble”.
Under “MGSDKIHHHHHHMSNQHSWALSMNQIENCSCSHGCGCQFGGFPTSKDGGCEAILGFEILKGHFNDLDLSGLKMVFAAAWPSAMHEGNGKGALFIDNSANEEQVGALATIMSGQAGGMPVEVLGTLFSEFDGPIMADIKLNRQDYTSTVTIEGIIEVEQEPHINPVTGEINEVHISFPKGGFMWNDGFAGKTKLMKINHGNMAFSYSDTFAANAVVNWPNA” stands “not soluble”.
Regarding “MSLQGQIDIPLDIVGRWQADQSAYELAKTYYWAKVAHLAEHNDQLAQPTYEGAHLADISEINNAPATARRMLVVSSDLFRAQQTAHAFADLMGLDVELDPRLRERSFGEWEGMTREEICEHYADDYHSWRAHTGGETKHGVESRIHTGRRGAEAVRDIVAKHHDETMPTTLLLVGHGSWIVATVAVLLDMDPDDLNNVGAMRNAFWTRMTPHTDPRNADRPTWKLEEFNQGPAIASFADWENGPESLRAPGMPLWKPIIQEGHHHHHH”, the “soluble on expression in E. coli” value was “not soluble”.
Under “MGSDKIHHHHHHMIEQLIQQAQPYWQQYIEHEFVQQLAKGTLPKACFQHYLKQDYLYLFHYSRAFALGVFKAKNFAEMETPRKTLEILCQEIQLHLNYCREWGISEQEIFTTQESAACIAYTRYLLDCGMTGSLAELYAAVTPCALGYAQVARYITQHYPRLPNNPYQTWIDTYASEEFQQAAQETVDFLTALCKPLNPSQLAEIQQIFTTATRMEIAFWQMGLDLA” stands “not soluble”.
Under “GPGSMPPKKKVERKEEQVFVEENGSYVHQREMARYTGGVRRLTDSNFCCRHGQGTYSSPLIHYEGNWSEDEMHGNGTLRFLVSGDSYTGQFVHGVMEGCGTYIWASGAMYDGGWRGNRMHGLGTYTDVGGKVWSGKFYNGSGPGLTPCVTTGGGVAAADKRDVLKDEKEG” stands “not soluble”.
Under “MYWERGLHMYKASAVVPTGYVRVGNTAPLVGEDTQRYASFWGDGYDVYRQLRWQQIPEKQRKAFKKAAKSKKTVMFAGREYGISKQNLSDVWDDFEDAMELKAFPCLSSLFLTKWHKNLYDSGLTKTSTALPRLSSKRTIL” stands “not soluble”; under “MNYLKTSGIVIKEVNTGEADRIITIFSKNKGKISALAKGARRPKSHLVAGTQLLCYSEFVLFKGKDMYTVNSCDVIESFYDIRNDLERLTYAAHMMDIVNDVILENQPASRLLQLFLNSLYMLSKTDRSPLQIVRVFEIRLLSTMGYAPWVSSCIKCGSTVFDSMYFSFLKCGFLCSKCLENDKGALKISEGAAKALNYIVHSKMSNLFSFEVSESVLDELGKVSQRYMKERLEKNYTKLDFIKTLDRIKC”, “soluble”.
With “SEKMSRPLPLNPTFIPPPYGVLRSLLENPLKLPLHHEDAFSKDKDKEKKLDDESNSPTVPQSAFLGPTLWDKTLPYDGDTFQLEYMDLEEFLSENGIPPSPSQHDHSPHPPGLQPASSAAPSVMDLSSRASAPLHPGIPSPNCMQSPIRPGQLLPANRNTPSPIDPDTIQVPVGYEPDPADLALSSIPGQEMFDPRKRKFSEEELKPQPMIKKARKVFIPDDLKDDKYWARRRKNNMAAKRSRDARRLKENQIAIRASFLEKENSALRQEVADLRKELGKCKNILAKYEARHGPL”, the “soluble on expression in E. coli” value is recorded as “soluble”.
Under “MSLKIKDIKVIFTEPDNIRLIIVKILTDQDGLYGVGCATFTQRPNPVKYAIEDYLKPFLIGKEVSNIEDIWQSSYVSSYWRNGPVLNNALSGVDQALWDIKGKMANMPLYDLFGGKTREAAAVYVHSSGDSNEEVGDKMQAFIEQGFHHIRVQVSTPGYSTYGNKSAKAGDKTLNNNDPKLGPIPVTKRVKDYSDGKLYAHPGGVFEPKPYLRSALSLFEYIRDRFGYGIEILHDVHERIPPILGVWFAKEVEKYQLFFLEDLFSPEDNEYFSMVRAQSSTPIAMGELYSSPHEIIPMIKNRLIDFIRIHISDIGGLTPAKKIAAMGEIFGVRTAWHGPGDTSPIGHAANLALDLSCYNFGIQEYSIFGENTKEVFPGCPIVKKGMMWSNDKPGLGIDIDEKLAKKFPFKEREYGGAWDTVRRADGSMVKEGHHHHHH” stands “not soluble”; under “MSVIKMTDLDLAGKRVFIRADLNVPVKDGKVTSDARIRASLPTIELALKQGAKVMVTSHLGRPTEGEYNEEFSLLPVVNYLKDKLSNPVRLVKDYLDGVDVAEGELVVLENVRFNKGEKKDDETLSKKYAALCDVFVMDAFGTAHRAQASTHGIGKFADVACAGPLLAAELDALGKALKEPARPMVAIVGGSKVSTKLTVLDSLSKIADQLIVGGGIANTFIAAQGHDVGKSLYEADLVDEAKRLLTTCNIPVPSDVRVATEFSETAPATLKSVNDVKADEQILDIGDASAQELAEILKNAKTILWNGPVGVFEFPNFRKGTEIVANAIADSEAFSIAGGGDTLAAIDLFGIADKISYISTGGGAFLEFVEGKVLPAVAMLEERAKK”, “soluble”.
Under “MSLCDVLQMARSTYYYEAKIRDDQDEELSELIVDIFKNSRDNYGQRKIKIELRKKGWTVSRRRIGRIMKEQGLVSKYTVAQFKPAKTSCNESEIGNTLNREFNQEQELKVVVSDLTYVRVQQKWHYICVLVDLYNREIIGYSAGPHKSAELVQRAFASVKYNLQRLELFHTDRGSEFKNKLIDQALETFGIERSLSEKGTPYDNAVAEATFKTIKTEFVRGAVFSSQQELDLELFDYVHWFNTIRIHGSLDYLTPTEYKLMNLEGHHHHHH” stands “not soluble”.
With “MFDDKILLITGGTGSFGNAVMKQFLDSNIKEIRIFSRDEKKQDDIRKKYNNSKLKFYIGDVRDSQSVETAMRDVDYVFHAAALKQVPSCEFFPVEAVKTNIIGTENVLQSAIHQNVKKVICLSTDKAAYPINAMGISKAMMEKVFVAKSRNIRSEQTLICGTRYGNVMASRGSVIPLFIDKIKAGEPLTITDPDMTRFLMSLEDAVELVVHAFKHAETGDIMVQKAPSSTVGDLATALLELFEADNAIEIIGTRHGEKKAETLLTREEYAQCEDMGDYFRVPADSRDLNYSNYVETGNEKITQSYEYNSDNTHILTVEEIKEKLLTLEYVRNELNDYKASMR”, the “soluble on expression in E. coli” value is listed as “not soluble”.
